# According to the RNAGym collection of RNA variant scans (doi:10.7554/elife.80360):
# B1: HDV Ribozyme (parent)
# chain: GGCCGGCAUGGUCCCAGCCUCCUCGCUGGCGCCGGCUGGGCAACAUUCCGAGGGGACCGUCCCCUCGGUAAUGGCGAAUGGGACCCA
# Variants of: B1
# Assay: self-cleavage, relative activity (ratio to wild type); higher = more cleavage; co-transcriptional
row,Variant,self-cleavage
1,G67U U72G,0.389
2,U65G C75U,0.212
3,C66G G82A,0.369
4,G67C A87C,0.84
5,G67U G81C,0.305
6,G68C A71U,0.68
7,U65G C66U,0.702
8,C66A G68A,0.805
9,C66A G68C,0.453
10,U65G G68A,0.772
11,G68U U72A,0.277
12,G68U U72G,0.359
13,G68C G73C,0.0511
14,G68C G73U,0.158
15,G68C G73A,0.193
16,G67A U79C,0.509
17,G67A U79A,0.982
18,C66A G76U,0.981
19,C66A G76C,0.976
20,G68U A71G,1.04
21,G68U A71U,1.01
22,G68U A71C,0.973
23,G68A A77G,0.743
24,G68A A77C,0.155

row,Variant,self-cleavage
1,G68A A77U,0.394
2,C66G G80U,0.116
3,C66G G80C,0.0959
4,C66U A78U,0.309
5,C66A A71C,0.866
6,C66A A71G,0.782
7,C66A A70U,1.08
8,C66A A70G,0.745
9,C66A A70C,0.831
10,G68U C85U,0.972
11,G67U G68A,0.972
12,G67U G68U,0.76
13,G67U G68C,0.962
14,G68A G80A,0.367
15,G68A G80C,0.286
16,G68A G80U,0.251
17,C66G C85G,0.969
18,C66U G67U,0.972
19,G68U U69G,0.773
20,G68U U69A,0.912
21,C66A A87G,0.898
22,C66U A77G,0.489
23,G67A G68U,0.79
24,G67A G68A,0.946

row,Variant,self-cleavage
1,G68C U69C,0.697
2,G68C U69A,0.739
3,G68C U69G,1.21
4,C66U G82C,0.268
5,C66U G82A,0.649
6,G68U G76A,0.953
7,G67U C85U,0.972
8,G67A A77C,0.325
9,G68U G80A,0.171
10,G67U U79C,0.231
11,G67U U79A,0.601
12,G67U U79G,0.516
13,G67U A77U,0.681
14,G67U A77G,0.489
15,U69A C85A,0.767
16,U69A C85G,1.16
17,C66U A71C,0.54
18,C66A A77G,0.706
19,C66A A77U,0.776
20,G67A G80A,0.41
21,G67A G80C,0.172
22,U65G A71G,0.917
23,U65G A71C,0.755
24,C66A C85A,0.939

row,Variant,self-cleavage
1,G68C U79C,0.302
2,G68A A78G,0.727
3,G68A G74U,0.612
4,G68A G74C,0.314
5,C66G A78G,0.875
6,C66G A78U,0.48
7,C66G A78C,0.148
8,G67A C85G,1.1
9,G67A C85U,1.03
10,G67A C85A,0.844
11,C66A U72G,0.332
12,C66A U72A,0.608
13,C66A A78U,0.198
14,C66A A78G,0.538
15,G68C G80C,0.208
16,G68C G80U,0.322
17,C66A A83U,0.225
18,C66A A83G,0.641
19,C66A A83C,0.527
20,G68C C85G,0.733
21,G68A G76A,1
22,U65C G81U,0.415
23,U65C G81A,0.358
24,C66U G81U,0.382

row,Variant,self-cleavage
1,C66U G81A,0.509
2,U69A A71G,0.731
3,U65G C86G,0.752
4,U65G C86A,0.988
5,G68C A83G,0.356
6,C66G C75G,0.383
7,C66G C75A,0.166
8,G67A A83G,0.39
9,G68A C75U,0.0615
10,G68C A78U,0.35
11,U65G C85A,1.11
12,C66U U72G,0.582
13,G68A C84A,0.817
14,G68A U69A,1
15,G67C A77U,0.707
16,G68C C84G,0.639
17,G68C C84A,1.06
18,C66U G74C,0.363
19,G67A G76C,0.926
20,G67A G76U,0.965
21,G68A A71G,0.904
22,G68A A71U,0.867
23,G68C A87G,0.948
24,G68C A87C,0.73

row,Variant,self-cleavage
1,U65G G67A,0.812
2,U69A A78U,0.222
3,U69A A78C,0.208
4,G68U G74U,0.604
5,G68A A87U,0.831
6,G68A A87G,0.995
7,U65G G76C,1.15
8,G67U G82U,0.227
9,G67U A83C,0.635
10,G67U A83U,0.469
11,G68A A70C,0.707
12,G68A A70G,1.07
13,G68A A70U,1.12
14,G67C A78G,0.492
15,G67C A78C,0.0639
16,C66A G73A,0.63
17,C66A G73C,0.277
18,C66A G73U,0.171
19,C66A U69A,1.16
20,C66A U69C,1.1
21,C66A U69G,0.755
22,G68U A77U,0.578
23,C66G A70U,1.08
24,C66G A70G,0.831

row,Variant,self-cleavage
1,C66G A70C,0.758
2,C66G G67U,0.831
3,C66G G67C,1.01
4,U65G G73C,0.289
5,U65G G73U,0.47
6,U65G G80A,0.288
7,G67A G74U,0.534
8,C66G G76U,0.88
9,C66G G76C,0.73
10,U65G A83G,0.698
11,U65G A83C,0.703
12,G68C A77G,0.554
13,G68C A77U,0.755
14,G68U A87U,1
15,G68U A87G,0.908
16,U65G G81C,0.439
17,U65G G81U,0.248
18,C66A C75U,0.292
19,C66A C75G,0.181
20,U65C G82A,0.554
21,U65C G82U,0.567
22,G67U C75G,0.185
23,U65C U79G,0.396
